Data published in US20140294863A1, “SERUM ALBUMIN BINDING PEPTIDES FOR TUMOR TARGETING” (GENENTECH, INC., priority 2002, published 2014).
Marks after values point to notes of the source that are not given here. Where a SMILES comes first, the peptide text is derived from it. Bridges are numbered along the chain shown (N, C = ends). Where no end group is shown, it is not given here.

Tests used:
[1] = target: T1, rabbit albumin (Oryctolagus cuniculus, UniProt P49065); assay: Direct Binding ELISA, AB.Fab variants on immobilized rabbit albumin; parameters: purchased Sigma; details: average and SD of at least 3 determinations
T1 sequence (P49065 25-608): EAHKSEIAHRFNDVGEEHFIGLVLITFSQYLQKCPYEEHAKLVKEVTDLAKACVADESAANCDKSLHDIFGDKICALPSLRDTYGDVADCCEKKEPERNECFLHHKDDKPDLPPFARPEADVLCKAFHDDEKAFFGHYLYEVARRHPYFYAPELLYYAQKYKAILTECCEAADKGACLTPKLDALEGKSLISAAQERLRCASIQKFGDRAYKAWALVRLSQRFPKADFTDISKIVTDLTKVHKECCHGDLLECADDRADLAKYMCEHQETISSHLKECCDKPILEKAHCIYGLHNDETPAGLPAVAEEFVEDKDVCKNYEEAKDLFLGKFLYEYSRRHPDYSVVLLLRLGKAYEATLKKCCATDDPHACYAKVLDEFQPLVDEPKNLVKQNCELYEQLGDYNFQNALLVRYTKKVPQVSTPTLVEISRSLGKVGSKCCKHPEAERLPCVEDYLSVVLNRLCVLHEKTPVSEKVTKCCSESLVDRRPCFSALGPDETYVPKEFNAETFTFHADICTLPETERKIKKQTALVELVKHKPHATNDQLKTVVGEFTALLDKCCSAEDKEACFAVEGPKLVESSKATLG
Experimental: (§1) Mouse, rat, or rabbit albumin (Sigma, St. Louis, Mo.) were immobilized onto NUNC Maxisorp™ 96-well plates at 2 ug/ml overnight at 4° C. […] AB.Fab variants were serially diluted in binding buffer and added at 100 μl per well to the immobilized albumin for 30 minutes at 25° C. Unbound AB.Fab variant was removed by washing wells with 0.05% PBS/Tween® 20 and bound AB.Fab variant was detected with goat anti-human Fab′2-HRP for 1 hour at 25° C. Bound HRP was measured with a solution of tetramethylbenzidine (TMB)/H202. After 15 minutes, the reaction was quenched by the addition of 1M phosphoric acid.
(§2) Initially we explored binding of the AB.Fab variants to immobilized albumin using a Direct Binding ELISA.

[2] = target: T2, rat albumin (Rattus norvegicus, UniProt P02770); assay: Direct Binding ELISA, AB.Fab variants on immobilized rat albumin; parameters: purchased Sigma; details: average and SD of at least 3 determinations
T2 sequence (P02770 25-608): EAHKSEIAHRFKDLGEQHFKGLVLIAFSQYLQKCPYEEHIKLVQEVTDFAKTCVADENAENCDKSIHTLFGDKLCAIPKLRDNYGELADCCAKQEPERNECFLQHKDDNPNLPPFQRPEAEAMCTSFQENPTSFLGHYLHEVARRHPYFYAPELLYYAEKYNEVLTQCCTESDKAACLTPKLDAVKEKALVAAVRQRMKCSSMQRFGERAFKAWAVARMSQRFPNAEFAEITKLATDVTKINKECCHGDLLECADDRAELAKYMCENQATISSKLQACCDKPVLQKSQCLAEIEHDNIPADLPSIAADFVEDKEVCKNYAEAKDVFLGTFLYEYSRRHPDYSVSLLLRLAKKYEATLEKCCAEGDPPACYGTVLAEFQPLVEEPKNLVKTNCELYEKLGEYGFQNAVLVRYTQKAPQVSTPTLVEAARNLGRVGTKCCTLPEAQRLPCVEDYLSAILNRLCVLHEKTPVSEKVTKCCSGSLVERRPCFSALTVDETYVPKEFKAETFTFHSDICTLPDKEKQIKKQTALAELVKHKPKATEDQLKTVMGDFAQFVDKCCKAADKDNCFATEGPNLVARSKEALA
Experimental: as §1, §2

[3] = target: T2, rat albumin; assay: SA08b binding assay (peptide competition ELISA), rat albumin; parameters: purchased Sigma; details: concentrations of up to 100 μM; data not shown
From the text: (§3) Plates were blocked as described above.
(§4) Peptides corresponding to identified phage sequences were synthesized and their affinity for rat, rabbit or mouse albumin measured using the SA08b binding assay.

[4] = target: T1, rabbit albumin; assay: SA08b binding assay (peptide competition ELISA), rabbit albumin; parameters: purchased Sigma; details: for effect on SA08b peptide binding to rabbit albumin: concentrations of up to 100 μM, data not shown; for improvement in IC50 relative to core sequence of about 10 amino acids: rabbit albumin
From the text: as §3, §4

[5] = Pharmacokinetics of AB.Fab variants in mice (HER2 Binding ELISA); format: in vivo; details: Mouse, group mean profile; for t1/2β: 4D5-H8 fit to one-compartment model (one half life estimate)
Experimental: (§5) All pharmacokinetic (PK) studies were conducted according to protocols approved by the Institutional Animal Care and Use Committee at Genentech, Inc. Sprague Dawley rats were supplied by Charles River Laboratories (Hollister, Calif. USA). New Zealand White (NWZ) rabbits were supplied by Myrtle's Rabbitry (Thompson Station, Tenn. USA). BALB-c mice were supplied by Charles River (Hollister, Calif. USA).
Over the course of 7 days serum was collected in 3 mice per time point by retro-orbital bleed or cardiac stick.
(§6) Briefly, samples were added to microtiter wells coated with HER2ecd and incubated for 2 hours at room temperature. The wells were washed, and goat anti-huFab-HRP was added and incubated for 1 hour at room temperature. Unbound HRP was removed by washing and enzyme substrate was added to detect bound HRP. […] Concentrations of AB.Fab were extrapolated by comparison to a standard curve of the dosed molecule.
In mice, a group mean serum concentration versus time profile was determined, producing one estimate for pharmacokinetic parameters for each AB.Fab dosing group. […] AB.Fab variant 4D5-H8 was fit to a one compartment model and estimates for the PK parameters of AUC, CL, Half-Life (t1/2) and V1 were determined using WinNonlin® software (Pharsight, Inc., supra).

[6] = Pharmacokinetics of AB.Fab variants in rats (HER2 Binding ELISA); format: in vivo; details: Rat; group mean
Experimental: as §5
At pre-dose, and over the course of 7 days post-dose, plasma was collected via a cannula inserted in the jugular vein.
as §6
(§7) For rats and rabbits, concentration versus time profiles for each animal were fit to a two compartment model using, iterative re-weighting to estimate the pharmacokinetic parameters of Area Under the Concentration-Time Curve (AUC), Clearance (CL), Beta Half-Life (t1/2β), Volume of Distribution of the Central Compartment (V1), and Steady State Volume of Distribution (Vss) using WinNonlin® software (Version 3.2, Pharsight, Inc.; Mountain View, Calif.) and group means were calculated.

[7] = Pharmacokinetics of AB.Fab variants in rabbits (HER2 Binding ELISA); format: in vivo; details: Rabbit; group mean
Experimental: as §5, §6, §7

[8] = target: T2, rat albumin; assay: Solution Binding ELISA, AB.Fab variants with soluble rat albumin; parameters: purchased Sigma; details: Rat albumin, as listed in Table 15; read-out: Kd for Albumin
[9] = target: T1, rabbit albumin; assay: Phage ELISA, phage clones on immobilized rabbit albumin; format: binding; parameters: purchased Sigma; details: for phage binding to rabbit albumin at pH 2.9: data not shown
Experimental: (§8) Phage clones (approximately 10^11 phage) were added to Maxisorp plates coated with rat, rabbit, or human albumin or with mouse, bovine, or rhesus albumin (Sigma), as described above. The microtiter plate was washed with wash buffer and bound phage were detected following incubation with HRP/Anti-M13 Conjugate (Amerisham Pharmacia Biotech, Piscataway, N.J.).

[10] = target: T3, human albumin (Homo sapiens, UniProt P02768); assay: Phage ELISA, phage clones on immobilized human albumin; format: binding
T3 construct: purchased Sigma
Experimental: as §8

[11] = target: albumin; assay: SA08b binding assay / competition ELISA, albumin species not stated; details: albumin species not given

Q: With “4D5-H4: AB.Fab variant of Fab4D5 with shortened albumin-binding peptide on heavy chain, no GGGS linker (Table 12) (DICLPRWGCLWED; disulfide 3-9 (inferred); also: part of Fab heavy chain)” as the compound, how does the EC50 [1] read?
A: 500 ± 50 nM

Q: With “4D5-H8: AB.Fab variant of Fab4D5 with shortened albumin-binding peptide on heavy chain, no GGGS linker (Table 12) (IEDICLPRWGCLWE; disulfide 5-11 (inferred); also: part of Fab heavy chain)” as the compound, how does the EC50 [1] read?
A: 500 ± 50 nM

Q: With “4D5-H10: AB.Fab variant made by deletion in 4D5-H4 (Table 12) (DICLPRWGCLW; disulfide 3-9 (inferred); also: part of Fab heavy chain)” as the compound, how does the EC50 [2] read?
A: 8 ± 0.003 nM

Q: What about the EC50 [1] of the same compound?
A: > 2000 nM

Q: For [Cl][Cu][Cl] [CuCl2, reference compound], which “effect on SA08b peptide binding to rat albumin” value (from here on “effect … to rat albumin”) [3] is on record?
A: no effect

Q: And the “effect on SA08b peptide binding to rabbit albumin” value (from here on “effect … to rabbit albumin”) [4]?
A: no effect

Q: For N[C@@H](Cc1c[nH]c2ccccc12)C(=O)O [L-tryptophan, reference compound], which “effect … to rat albumin” value [3] is on record?
A: no effect

Q: And the “effect … to rabbit albumin” value [4]?
A: no effect

Q: For CC[C@H](C)[C@H](NC(=O)[C@H](CC(C)C)NC(=O)[C@H](CCCNC(=N)N)NC(C)=O)C(=O)N[C@@H](CCC(=O)O)C(=O)N[C@@H](CC(=O)O)C(=O)N[C@H](C(=O)N[C@H]1CSSC[C@@H](C(=O)N[C@@H](CC(C)C)C(=O)N[C@@H](Cc2c[nH]c3ccccc23)C(=O)N[C@@H](CCC(=O)O)C(=O)N[C@@H](CC(=O)O)C(N)=O)NC(=O)CNC(=O)[C@H](Cc2c[nH]c3ccccc23)NC(=O)[C@H](CCCNC(=N)N)NC(=O)[C@@H]2CCCN2C(=O)[C@H](CC(C)C)NC1=O)[C@@H](C)CC [SA22] (Ac-RLIEDICLPRWGCLWED-NH2; disulfide 7-13), which “improvement in IC50 relative to core sequence of about 10 amino acids” value [4] is on record?
A: 60 fold

Q: Which “improvement in IC50 relative to core sequence of about 10 amino acids” value [4] does the source give for CC[C@H](C)[C@H](NC(=O)[C@H](CC(=O)O)NC(C)=O)C(=O)N[C@H]1CSSC[C@@H](C(=O)N[C@@H](CC(C)C)C(=O)N[C@@H](Cc2c[nH]c3ccccc23)C(=O)N[C@@H](CCC(=O)O)C(=O)N[C@@H](CC(=O)O)C(N)=O)NC(=O)CNC(=O)[C@H](Cc2c[nH]c3ccccc23)NC(=O)[C@H](CCCNC(=N)N)NC(=O)[C@@H]2CCCN2C(=O)[C@H](CC(C)C)NC1=O [SA26, Ac DICLPRWGCLWED NH2] (Ac-DICLPRWGCLWED-NH2; disulfide 3-9) here?
A: about 8.6 fold

Q: With CC[C@H](C)[C@H](NC(=O)[C@H](CC(C)C)NC(=O)[C@H](CCCNC(=N)N)NC(C)=O)C(=O)N[C@@H](CCC(=O)O)C(=O)N[C@@H](CC(=O)O)C(=O)N[C@H](C(=O)N[C@H]1CSSC[C@@H](C(=O)N[C@@H](CC(C)C)C(N)=O)NC(=O)CNC(=O)[C@H](Cc2c[nH]c3ccccc23)NC(=O)[C@H](CCCNC(=N)N)NC(=O)[C@@H]2CCCN2C(=O)[C@H](CC(C)C)NC1=O)[C@@H](C)CC [SA33] (Ac-RLIEDICLPRWGCL-NH2; disulfide 7-13) as the compound, how does the “improvement in IC50 relative to core sequence of about 10 amino acids” value [4] read?
A: approximately 6 fold

Q: With CC[C@H](C)[C@H](NC(=O)[C@H](CC(C)C)NC(=O)[C@H](CCCNC(=N)N)NC(C)=O)C(=O)N[C@@H](CCC(=O)O)C(=O)N[C@@H](CC(=O)O)C(=O)N[C@H](C(=O)N[C@H]1CSSC[C@@H](C(N)=O)NC(=O)CNC(=O)[C@H](Cc2c[nH]c3ccccc23)NC(=O)[C@H](CCCNC(=N)N)NC(=O)[C@@H]2CCCN2C(=O)[C@H](CC(C)C)NC1=O)[C@@H](C)CC [SA35] (Ac-RLIEDICLPRWGC-NH2; disulfide 7-13) as the compound, how does the IC50 [4] read?
A: > 250000 nM

Q: What does the source list for CN(C)c1cccc2c(S(=O)(=O)N(C)CC(=O)O)cccc12 [dansylsarcosine, reference compound]?
A: effect on SA08b peptide binding to rat albumin [3]: no effect; effect on SA08b peptide binding to rabbit albumin [4]: no effect

Q: With CCCCCCCCCCCCCC(=O)O [myristic acid, reference compound] as the compound, how does the “effect … to rat albumin” value [3] read?
A: no effect

Q: What about the “effect … to rabbit albumin” value [4] of the same compound?
A: no effect

Q: What does the source list for “AB.Fab 4D5-H4 (DICLPRWGCLWED; disulfide 3-9 (inferred); also: part of Fab heavy chain)”?
A: AUC [5]: 2070 µg·h/mL; CL [5]: 2.41 mL/h/kg; V1 [5]: 0.0284 L/kg; Vss [5]: 0.0444 L/kg; t1/2β [5]: 13.5 h; AUC [6]: 1450 ± 146 µg·h/mL; CL [6]: 3.24 ± 0.352 mL/h/kg; V1 [6]: 0.0522 ± 0.00421 L/kg; Vss [6]: 0.076 ± 0.00656 L/kg; t1/2β [6]: 20.7 ± 1.07 h; AUC [7]: 127 ± 16.5 µg·h/mL; CL [7]: 3.58 ± 0.496 mL/h/kg; V1 [7]: 0.0305 ± 0.00167 L/kg; Vss [7]: 0.0822 ± 0.0102 L/kg; t1/2β [7]: 28.3 ± 2.88 h

Q: Which results are given for “AB.Fab 4D5-H8 (IEDICLPRWGCLWE; disulfide 5-11 (inferred); also: part of Fab heavy chain)”?
A: AUC [5]: 2610 µg·h/mL; CL [5]: 1.91 mL/h/kg; Vss [5]: 0.0387 L/kg; t1/2β [5]: 14.0^b hr; AUC [6]: 1890 ± 294 µg·h/mL; CL [6]: 2.44 ± 0.453 mL/h/kg; V1 [6]: 0.0458 ± 0.00811 L/kg; Vss [6]: 0.0859 ± 0.0154 L/kg; t1/2β [6]: 28.0 ± 1.88 h; AUC [7]: 232 ± 62.7 µg·h/mL; CL [7]: 1.99 ± 0.477 mL/h/kg; V1 [7]: 0.0296 ± 0.00332 L/kg; Vss [7]: 0.0659 ± 0.0071 L/kg; t1/2β [7]: 36.2 ± 7.13 h

Q: What does the source list for “AB.Fab 4D5-H10 (DICLPRWGCLW; disulfide 3-9 (inferred); also: part of Fab heavy chain)”?
A: AUC [6]: 541 ± 77.9 µg·h/mL; CL [6]: 9.21 ± 1.24 mL/h/kg; V1 [6]: 0.0446 ± 0.00204 L/kg; Vss [6]: 0.0753 ± 0.0092 L/kg; t1/2β [6]: 10.9 ± 2.86 h; AUC [7]: 33.7 ± 3.32 µg·h/mL; CL [7]: 13.5 ± 1.40 mL/h/kg; V1 [7]: 0.0368 ± 0.00412 L/kg; Vss [7]: 0.0987 ± 0.0141 L/kg; t1/2β [7]: 12.0 ± 2.21 h

Q: Which results are given for “AB.Fab 4D5-H11 (DICLPRWGCL; disulfide 3-9 (inferred); also: part of Fab heavy chain)”?
A: AUC [6]: 57.0 ± 7.39 µg·h/mL; CL [6]: 80.2 ± 11.8 mL/h/kg; V1 [6]: 0.0487 ± 0.00225 L/kg; Vss [6]: 0.0816 ± 0.00576 L/kg; t1/2β [6]: 4.21 ± 0.151 h; Kd [8]: 2500 nM; AUC [7]: 24.6 ± 2.74 µg·h/mL; CL [7]: 20.6 ± 2.24 mL/h/kg; V1 [7]: 0.0404 ± 0.00438 L/kg; Vss [7]: 0.101 ± 0.0317 L/kg; t1/2β [7]: 11.9 ± 2.61 h

Q: For HSQMEDICLPRWGCLWGDEL [RB-B8], which “phage binding to rabbit albumin at pH 2.9” value [9] is on record?
A: no binding

Q: With QRHPEDICLPRWGCLWGDDD [RB-H1] as the compound, how does the “phage binding to rabbit albumin at pH 2.9” value [9] read?
A: no binding

Q: What does the source list for “QRQMVDFCLPQWGCLWGDGF [RB, phage clone selected on rat SA, ID 35]”?
A: binding to human albumin [10]: capable of binding; binding to rabbit albumin ([9]; phage ELISA): capable of binding

Q: With “linear peptide, identical to SA06, but having both Cys residues altered to Ala: linear peptide, identical to SA06, but having both Cys residues altered to Ala (LEYEDIALPKWGALWGGE)” as the compound, how does the IC50 [11] read?
A: > 50000 nM
